Data on 84 variants can be found in the RNAGym collection of RNA variant scans (doi:10.1073/pnas.2313332121).

B1: TPR t1 (parent)
chain: GACCAAUCUGCCCUCAGAGCUCGAGAACAUCUUCGGAUGCAGAGGAGGCAGGCUUCGGUGGCGCGAUAGCGCCAACGUCCUCAACCUCCAAUGCAUCCCACCACAUGAUGAUGCCUGAAGAGCCUUGGUUUUUUG

In this series the parent is B1. The experiment in a line: polymerase ribozyme fitness, log enrichment relative to wild type (log ratio); higher = more active; in vitro selection for triplet polymerase activity. The essentials:
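PCR was used to build mutant libraries for each subunit of a heterodimeric triplet polymerase ribozyme, which were then transcribed. A single in vitro selection round, in triplicate, used a frozen incubation at −7 °C and recovered extended constructs by gel excision, streptavidin beads and RT-PCR. Fitness is the logarithm of genotype enrichment relative to wild-type enrichment, averaged over replicates with inverse-variance weights. The logarithm is base 2, and after Illumina sequencing only genotypes with ≥10 input reads and ≥1 read per output were kept.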
For the variant G47U G60A G117A, the “polymerase ribozyme fitness (log ratio)” value was -3.41.

G48C C85A: the “polymerase ribozyme fitness (log ratio)” value was -2.11.

Regarding A46C U96G C104U U131C, the “polymerase ribozyme fitness (log ratio)” value is -1.75.

As for G47A G51U U55A C98A G113C, the “polymerase ribozyme fitness (log ratio)” value is -7.22.

For the variant G47A U54C C97G, the “polymerase ribozyme fitness (log ratio)” value was -5.9.

Consider G47A G48A C53A G127A, for which the “polymerase ribozyme fitness (log ratio)” value was -3.92.

As to A46U G60C G93C G113C A121C, the “polymerase ribozyme fitness (log ratio)” value was -4.8.

As to G47C C70U G93A C124A G127U G135U, the “polymerase ribozyme fitness (log ratio)” value was -3.66.

As for G47A C56U, the “polymerase ribozyme fitness (log ratio)” value is 0.000278.

For G47A C56G, the “polymerase ribozyme fitness (log ratio)” value is -1.29.

For G47A A50U G57U C82A, the “polymerase ribozyme fitness (log ratio)” value was -2.37.

On to G47A G52A G61C G120A, for which the “polymerase ribozyme fitness (log ratio)” value was -4.97.

G48C A74C: the “polymerase ribozyme fitness (log ratio)” value was -0.603.

With G48A C53U C80U C124U, the “polymerase ribozyme fitness (log ratio)” value worked out at 0.0289.

Turning to G47C C49G U96A, the “polymerase ribozyme fitness (log ratio)” value was -2.52.

Regarding G47U C64U A121U, the “polymerase ribozyme fitness (log ratio)” value is 0.804.

As to A46G C97U U130G, the “polymerase ribozyme fitness (log ratio)” value is -2.03.

As to G47C C49A C70A U106G, the “polymerase ribozyme fitness (log ratio)” value is -5.44.

For the variant G47U A90G, the “polymerase ribozyme fitness (log ratio)” value is -0.297.

For the variant A46U U106A C124G U129G, the “polymerase ribozyme fitness (log ratio)” value is -0.0518.

As for G48A C56U C86A C94A A111C, the “polymerase ribozyme fitness (log ratio)” value is -2.79.

For G48U C56G C72U C86G, the “polymerase ribozyme fitness (log ratio)” value is -2.89.

In the case of G48A C56U C82U, the “polymerase ribozyme fitness (log ratio)” value is -0.312.

As to G48A C64U U78C G107U, the “polymerase ribozyme fitness (log ratio)” value is -6.15.

On to G48C U87A, for which the “polymerase ribozyme fitness (log ratio)” value is -1.01.

Turning to G47U C64U, the “polymerase ribozyme fitness (log ratio)” value is -1.51.

Regarding G47A U59G A91U G113A, the “polymerase ribozyme fitness (log ratio)” value is -2.02.

For G47U A50U U59C C73A U78A, the “polymerase ribozyme fitness (log ratio)” value is -2.43.

Take G48A U59A C72G G120U G135A: the “polymerase ribozyme fitness (log ratio)” value was -2.76.

For A46U G48U U112G G135C, the “polymerase ribozyme fitness (log ratio)” value is -3.81.

As to A46U C64G C123G C124A, the “polymerase ribozyme fitness (log ratio)” value was -5.93.

For the variant A46U U96C C115U, the “polymerase ribozyme fitness (log ratio)” value was -2.77.

Take G48A C72G: the “polymerase ribozyme fitness (log ratio)” value was -0.135.

Turning to G48A C72A, the “polymerase ribozyme fitness (log ratio)” value is -0.519.

In the case of G48A C72U, the “polymerase ribozyme fitness (log ratio)” value is -0.785.

As for G47C C102A G120U, the “polymerase ribozyme fitness (log ratio)” value is -3.97.

As to A46C U109C, the “polymerase ribozyme fitness (log ratio)” value is -6.47.

Take A46U G60C U96C C123G: the “polymerase ribozyme fitness (log ratio)” value turned out to be 0.53.

For the variant G47U C62G, the “polymerase ribozyme fitness (log ratio)” value is -3.76.

For G48A C82G, the “polymerase ribozyme fitness (log ratio)” value is -0.457.

As to G48A C82A, the “polymerase ribozyme fitness (log ratio)” value was -1.42.

In the case of G47C G48A, the “polymerase ribozyme fitness (log ratio)” value was -2.94.

As to G47U G71A, the “polymerase ribozyme fitness (log ratio)” value was -1.21.

As to G47A A68G, the “polymerase ribozyme fitness (log ratio)” value was -3.62.

For the variant G48C C79U C101A, the “polymerase ribozyme fitness (log ratio)” value was -1.57.

For G47U G128U, the “polymerase ribozyme fitness (log ratio)” value was -2.73.

Regarding A46G U55G U87C, the “polymerase ribozyme fitness (log ratio)” value was -0.104.

Consider A46G C49A, for which the “polymerase ribozyme fitness (log ratio)” value worked out at 0.0417.

For the variant A46G C49U, the “polymerase ribozyme fitness (log ratio)” value was -0.575.

In the case of G48A C82U U92A G110U, the “polymerase ribozyme fitness (log ratio)” value was -6.7.

Consider G47C A108G U112A, for which the “polymerase ribozyme fitness (log ratio)” value is -5.05.

G48U C49U A91C: the “polymerase ribozyme fitness (log ratio)” value is -2.49.

Take A46G U54G: the “polymerase ribozyme fitness (log ratio)” value was determined as 0.0807.

Take A46G C53U G113A: the “polymerase ribozyme fitness (log ratio)” value is -2.14.

G47A C88G U112G U133A: the “polymerase ribozyme fitness (log ratio)” value is -5.65.

On to A46U G120U G135C, for which the “polymerase ribozyme fitness (log ratio)” value is -0.818.

For G47A C70A C101U, the “polymerase ribozyme fitness (log ratio)” value is -1.81.

Regarding A46G G47U A119G, the “polymerase ribozyme fitness (log ratio)” value is -0.516.

Consider G47U C53G C62A, for which the “polymerase ribozyme fitness (log ratio)” value was -2.11.

On to A46G C56A A100C, for which the “polymerase ribozyme fitness (log ratio)” value is -1.41.

With G47U G135C, the “polymerase ribozyme fitness (log ratio)” value is -1.39.

Take G48A G61A U130A: the “polymerase ribozyme fitness (log ratio)” value is -0.668.

Consider G47C C62G A118G, for which the “polymerase ribozyme fitness (log ratio)” value was -3.74.

For the variant G48A C73A U92A C115U, the “polymerase ribozyme fitness (log ratio)” value was -5.26.

On to G47A G61A A84C, for which the “polymerase ribozyme fitness (log ratio)” value was -1.29.

A46U G63C C76A C85A C115G: the “polymerase ribozyme fitness (log ratio)” value was -5.34.

With A46U C64U A66U, the “polymerase ribozyme fitness (log ratio)” value was -2.06.

As to G48C C56U C85U U126G, the “polymerase ribozyme fitness (log ratio)” value was -2.57.

For G48C C49G A84U C124U, the “polymerase ribozyme fitness (log ratio)” value is -1.8.

Regarding G47C C102U G110U U133A, the “polymerase ribozyme fitness (log ratio)” value was -5.04.

Consider A46U C89U, for which the “polymerase ribozyme fitness (log ratio)” value is -2.66.

On to A46U G63A C85G A121C, for which the “polymerase ribozyme fitness (log ratio)” value is -1.37.

For A46U C49U G58C G60A A95C U112G U132A, the “polymerase ribozyme fitness (log ratio)” value is -3.98.

Turning to G47A G69C C101U G122A, the “polymerase ribozyme fitness (log ratio)” value is -3.07.

Regarding A46U C62G, the “polymerase ribozyme fitness (log ratio)” value is -3.18.

With A46U C62U, the “polymerase ribozyme fitness (log ratio)” value is -1.12.

With A46U G71U G110A, the “polymerase ribozyme fitness (log ratio)” value is -2.84.

On to A46G A95G, for which the “polymerase ribozyme fitness (log ratio)” value is -0.108.

As to G48C C49G U54C A95C G117A, the “polymerase ribozyme fitness (log ratio)” value was -2.24.

As to A46U A111G, the “polymerase ribozyme fitness (log ratio)” value is -1.48.

As for G48C C49U U106G, the “polymerase ribozyme fitness (log ratio)” value was -2.77.

Regarding G48A C79A U126C, the “polymerase ribozyme fitness (log ratio)” value was -2.73.

As for G47A C72U A121U, the “polymerase ribozyme fitness (log ratio)” value came out at 1.16.

A46U C62G U112G: the “polymerase ribozyme fitness (log ratio)” value is -2.14.
